This test addresses alternative C3 convertase, C3bBb (human) (UniProt P01024).

Among the data in paper PMC7948415 are IC50 of inhibition of AP-mediated hemolysis of rabbit erythrocytes, properdin-depleted serum against normal human serum values, retold here.

B1: SG7.AF (natural protein)
chain: ARKHVQELLKTFRRIDFDETRKSVYLQSAKFGVQSQLREPLTKKVLNYWDDVKLSKTCLDRMVTKVNDVKETFYAGFSYACESHNQYSVDCLEAAKPSYLTALGEIRGETEKCLTTRLK
Take B1: the IC50 of inhibition of AP-mediated hemolysis of rabbit erythrocytes, properdin-depleted serum against normal human serum worked out at 6 fold.
